Measurements from US10617757B2, “Methods for treating multiple myeloma” (The Regents of the University of California, priority 2014, dated 2020).

System: licensed KIR3DL1+ NK cells
Assay: NK cell degranulation (CD107α staining, flow cytometry) stimulated by patient-derived myeloma target cells
Type: cell-based, human
Conditions: presence vs absence of SAR650984; myeloma target cells expressing HLA-Bw4-I80 ligand; FIG. 8
Experimental: The functional capacity of a patient's NK cells stimulated by pre-treatment patient-derived myeloma target cells was assessed in response to SAR650984, using flow cytometry (FIG. 8).

“SAR650984: a humanized anti-CD38 antibody; comprises VH and VL CDR sequences set forth in SEQ ID NOs:1-6” was tested, and the “Degranulation as measured by CD107α staining (surrogate marker for cytotoxicity)” value was “greatly enhanced degranulation”.
